Where two headings read alike, the source gives them in different places.

The source of these data is patent US20180362629A1 (ZOETIS BELGIUM S A, published 2018).

The target in test [1] is T1, recombinant canine β NGF (canine, UniProt Q29074 110-229 (pig entry)).
T1 construct: also called canine NGF
T1 chain: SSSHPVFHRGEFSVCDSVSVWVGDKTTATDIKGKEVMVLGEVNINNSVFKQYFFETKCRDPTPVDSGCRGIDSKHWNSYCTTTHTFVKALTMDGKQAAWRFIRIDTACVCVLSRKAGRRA
As to the kind of experiment: SPR (Biacore T100), antibody captured on goat anti-canine IgG, canine NGF injected; Expt 1; Expt 1. How it is done:
(§1) Purified mouse/canine chimeric antibodies and caninized antibodies were analyzed for affinity to canine NGF using a Biacore T100 instrument. Goat anti Canine IgG (Southern Biotech) was immobilized at 5000-10000 RU on a CM5 chip using an amine coupling procedure according to the manufacturer's instructions (Biacore). […] The association rate was monitored for 5 min and the dissociation rate was monitored for 10-20 min. The chip surface was regenerated using 50-75 ul 10 mM glycine pH 1.5 at a flow rate of 50-100 ul/min. Data was analyzed using Biaevaluation T100 software version 2.0.2, software, GE Healthcare Life Sciences (Piscataway, N.J.). Overall affinity parameters established for mouse/canine chimeric antibodies is summarized in Table 22 and for caninized antibodies in Table 23. […] The overall KDs of the mouse/canine anti-NGF mAbs range from about 1300 pM to 1.6 pM. […] The overall KDs of the caninized anti-NGF mAbs range from about 42 pM to 1.2 pM.

Test [2] addresses T1, recombinant canine β NGF. Nature of the test: SPR (Biacore T100), antibody captured on goat anti-canine IgG, canine NGF injected; Expt 1. On the procedure:
as §1
On the technique in general: Surface plasmon resonance follows binding to a sensor surface in real time, without labels.

Test [3] addresses T1, recombinant canine β NGF. Nature of the test: SPR (Biacore T100), antibody captured on goat anti-canine IgG, canine NGF injected; Average. How it is done:
as §1

For test [4], the target named is T1, recombinant canine β NGF. Nature of the test: cell-based or functional assay.
Test [5] deals with T1, recombinant canine β NGF. Nature of the test: SPR (Biacore T100), antibody captured on goat anti-canine IgG, canine NGF injected; Expt 2. On the procedure:
as §1

Test [6] deals with T1, recombinant canine β NGF. As to the kind of experiment: cell-based or functional assay.
Test [7] has as its target T1, recombinant canine β NGF. Nature of the test: direct ELISA, canine NGF coated at 1 µg/ml, mAb at 0.4 µg/ml. How it is done:
(§2) To determine if purified mouse anti-NGF mAbs bind to canine β NGF, ELISA plates were coated with 50 μl/well of canine NGF (Abbott Laboratories) at 1 μg/ml in PBS and incubated over night at 4° C. The plates were washed three times with PBS+Tween buffer. The plates were blocked with 200 μl/well of 2% milk in PBS for 1 hour at room temperature. The plates were washed three times as above. Purified antibodies were diluted to 0.4, 2, or 10 μg/ml. 50 μl of each concentration of purified antibody was added to the plates. The plates were incubated for 1 hour at room temperature. The plates were washed. 50 μl of a 5000-fold diluted goat anti-mouse IgG Fc-HRP (Thermo, catalog #31439) was added. The plates were incubated for 1 hour at room temperature. 50 μl of TMB (Invitrogen, catalog #00-2023) was added and the reaction was stopped using 2N H₂SO₄ (VWR, catalog # BDH3500-1). The absorbance at 450 nm was read on a Spectromax 2E plate reader (Molecular Devices). The results are shown in Table 9, and the numerical value indicates binding of mouse anti-NGF antibodies to canine β NGF.
A general note: In an ELISA, binding on a coated surface is turned into a signal by an enzyme label.

The target in test [8] is T1, recombinant canine β NGF. As to the kind of experiment: SPR (Biacore), mAb captured on goat anti-mouse IgG Fc, canine NGF injected; Expt 1. On the procedure: (§3) A biomolecular protein interaction analysis was used to evaluate the binding kinetics of the interaction between the purified anti-NGF hybridoma antibodies and recombinant canine β NGF. The antibodies were captured using a goat anti-mouse IgG FC (10000 RU) surface which was directly immobilized to a CM5 chip using an amine coupling procedure according to the manufacturer's instructions (Biacore). A sample size of 5 μl of antibody at a concentration of 1 μg/ml was captured at 10 μl minute. Recombinant canine NGF was used as the antigen. Canine NGF was injected at 75 μl/min (concentration range: 5-0.039 nM) for mouse antibodies. The association rate was monitored for 3.3 minutes and the dissociation rate was monitored for 10 minutes. Aliquots of canine NGF were also simultaneously injected over a reference reaction CM surface to record any nonspecific binding background. The instrument sensitivity for on-rate is I×IO⁷, such that any on-rate that is faster than I×IO⁷ may not be accurately measured; the instrument sensitivity for off-rate is […], such that any off-rate that is slower than 1×10⁻⁶ may not be accurately measured. Therefore, an on-rate that is faster than 1×10⁷ is recorded as >1×10⁷ and an off-rate that is slower than 1×10⁻⁶ is recorded as <1×10⁻⁶.

Test [9] addresses T1, recombinant canine β NGF. As to the kind of experiment: direct ELISA, canine NGF coated at 1 µg/ml, mAb at 2 µg/ml. On the procedure: as §2
Test [10] has as its target T1, recombinant canine β NGF. Nature of the test: cell-based or functional assay.
Test [11] addresses T1, recombinant canine β NGF. As to the kind of experiment: SPR (Biacore), mAb captured on goat anti-mouse IgG Fc, canine NGF injected; Expt 2. On the procedure:
as §3

In test [12] the target is human β NGF (R&D Systems catalog #256-GF/CF) (human, UniProt P01138 122-241). As to the kind of experiment: cell-based or functional assay.
For test [13], the target named is T1, recombinant canine β NGF. Nature of the test: direct ELISA, canine NGF coated at 1 µg/ml, mAb at 10 µg/ml. How it is done:
as §2

In test [14] the target is T1, recombinant canine β NGF. As to the kind of experiment: SPR (Biacore), mAb captured on goat anti-mouse IgG Fc, canine NGF injected; Average. On the procedure: as §3
For test [15], the target named is T1, recombinant canine β NGF. Nature of the test: SPR (Biacore), mAb captured on goat anti-mouse IgG Fc, canine NGF injected; Average; Average. On the procedure: as §3
Test [16] addresses T1, recombinant canine β NGF. Nature of the test: SPR (Biacore), mAb captured on goat anti-mouse IgG Fc, canine NGF injected; Expt 1; Expt 1. How it is done: as §3

Sequence of human β NGF (R&D Systems catalog #256-GF/CF) (P01138 122-241 limits assumed): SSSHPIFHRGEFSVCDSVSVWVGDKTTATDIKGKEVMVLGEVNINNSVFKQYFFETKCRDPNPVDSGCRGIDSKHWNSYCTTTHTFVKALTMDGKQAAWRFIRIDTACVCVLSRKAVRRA

B1: 82.3 Canine IgG1/k (antibody, V domains shown)
VH: EVQLQESGPGLVKPSQTLSLTCTVSGFSLTGYNINWVRQRPDRGLEWLGMIWGYGDTDYNSALKSRLSISKDNTKSQVFLQLTSTTTEDTAVYYCARDHYGGNDWYFDVWGQGTLVTVSS
VL: DIQMTQTPLSLSASPGESASITCRASQDITNYLNWYRQKPGQSVKLLIYYTSRLHSGVPSRFSGSGSGTDYSLRISRVEDEDAGLYFCQQGKTLPRTFGQGTKLEIKR
notes: The variable/constant junction was not checked; also called PR-1313519; PR-13113519
For orientation: koff means the rate constant with which the complex falls apart. As usually defined, the Kd is the free concentration of one partner at which half of the binding sites on the other are occupied at equilibrium, for simple one-to-one binding. As usually defined, the kon is the second-order rate constant of association. On to B1, for which the koff with recombinant canine β NGF [1] was determined as 2e-05 s⁻¹; with recombinant canine β NGF [3], 1.7e-05 s⁻¹; with recombinant canine β NGF [5], 1.3e-05 s⁻¹. Also, the Kd with recombinant canine β NGF [2] came to 2.4 pM; with recombinant canine β NGF [3], 2 pM; in the test with recombinant canine β NGF [5], 1.6 pM. The kon with recombinant canine β NGF [2] was 8.2e+06 M⁻¹ s⁻¹; with recombinant canine β NGF [3] it was 8.4e+06 M⁻¹ s⁻¹; with recombinant canine β NGF [5], 8.5e+06 M⁻¹ s⁻¹. In the test with recombinant canine β NGF [4], the “IC50, canine NGF-induced TF-1 cell proliferation (70 pM canine NGF)” value (shortened to “IC50 … (70 pM canine NGF)”) came to 0.017 nM.

B2: PR-1254980 (antibody, mouse IgG1, V domains shown)
VH: EVQLQQSGAELVKPGASVKLSCTASGFNIKDTYIYWVKQRPEQGLEWIGRIDPANGNTIYASKFQGKATITADTSSNTAYMQLSSLTSGDTAVYYCAGYGYYAYWGQGTTLTVSS
VL: DVVLTQTPLSLPVNIGDQASISCKSTKSLLNGDGFTYLDWYLQKPGQSPQLLIYLVSNRFSGVPDRFSGSGSGTDFTLKISRVEAEDLGVYYCFESNYLFTFGSGTKLEMKR
notes: also called 23F1; ML129-23F1.4G3
With B2, the “IC50 … (70 pM canine NGF)” value in the test with recombinant canine β NGF [6] was 0.343 nM. In addition, the “absorbance at 450 nm” value turned out to be 0.168 A450 with recombinant canine β NGF [7], 0.334 A450 with recombinant canine β NGF [9] and 0.491 A450 in the test with recombinant canine β NGF [13]. In addition, the dissociation constant Kd with recombinant canine β NGF [8] is below 23.7 pM; with recombinant canine β NGF [11], below 22.5 pM; in the test with recombinant canine β NGF [14] it was below 23.1 pM. Besides, the off-rate (koff) worked out at 0.000237 s⁻¹ in the test with recombinant canine β NGF [8], 0.000225 s⁻¹ with recombinant canine β NGF [11] and 0.000231 s⁻¹ in the test with recombinant canine β NGF [14]. Further, the kon in the test with recombinant canine β NGF [8], in the test with recombinant canine β NGF [11] and with recombinant canine β NGF [14] was above 1e+07 M⁻¹ s⁻¹ in each case. For the same molecule, in the test with recombinant canine β NGF [10], the “PathHunter IC50 (441 pM canine NGF)” value amounted to 0.381 nM. For the same molecule, the “SureFire pERK IC50 (128 pM canine β NGF)” value with recombinant canine β NGF [10] was 0.0137 nM. The “PathHunter % of max signal, supernatant 100-fold” value in test [12] is 5%.

B3: PR-1254982 (antibody, mouse IgG1, V domains shown)
VH: QVQLKESGPGLVAPSQSLSITCTVSGFSLTGYNINWVRQPPGKGLEWLGMIWGYGDTDYNSALKSRLSISKDNSKSQVFLKMNSLQTDDTARYYCARDHYGGNDWYFDVWGTGTTVTVSS
VL: DIQMTQTTSSLSASLGDRVTITCRASQDITNYLNWYQQKPDGTVKLLIYYTSRLHSGVPSRFSGSGSGTDYSLTISNLDQEDIATYFCQQGKTLPRTFGGGTKLEIKR
notes: also called 3F7; ML130-3F7.4A8
In the case of B3, the “IC50 … (70 pM canine NGF)” value with recombinant canine β NGF [6] worked out at 0.025 nM. The “absorbance at 450 nm” value with recombinant canine β NGF [7] is 0.095 A450; in the test with recombinant canine β NGF [9], 0.142 A450; with recombinant canine β NGF [13], 0.208 A450. Besides, the koff with recombinant canine β NGF [15], with recombinant canine β NGF [11] and in the test with recombinant canine β NGF [16] was below 1e-06 s⁻¹ each time. In addition, the equilibrium dissociation constant (Kd) in the test with recombinant canine β NGF [8], with recombinant canine β NGF [11] and in the test with recombinant canine β NGF [14] was below 0.1 pM each time. Also, the kon with recombinant canine β NGF [8], with recombinant canine β NGF [11] and with recombinant canine β NGF [14] was above 1e+07 M⁻¹ s⁻¹ each time. Also, the “PathHunter IC50 (441 pM canine NGF)” value with recombinant canine β NGF [10] worked out at 0.15 nM. In addition, the “SureFire pERK IC50 (128 pM canine β NGF)” value in the test with recombinant canine β NGF [10] amounted to 0.0058 nM.
